Variants at the floor of the assay were thinned out.

The results in this text go back to the RNAGym collection of RNA variant scans (doi:10.1073/pnas.2313332121).

B1: TPR 5TU (parent)
chain: GGAUCUUCUCGAUCUAACAAAAAAGACAAAUCUGCCACAAAGCUUGAGAGCAUCUUCGGAUGCAGAGGCGGCAGCCUUCGGUGGCGCGAUAGCGCCAACGUUCUCAACUAUGACACGCAAAACGCGUGCUCCGUUGAAUGGAGUUUAUCAUG

The series covers variants of B1. Description: polymerase ribozyme fitness, log enrichment relative to wild type (log ratio); higher = more active; in vitro selection for triplet polymerase activity. In outline:
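PCR was used to build mutant libraries for each subunit of a heterodimeric triplet polymerase ribozyme, which were then transcribed. A single in vitro selection round, in triplicate, used a frozen incubation at −7 °C and recovered extended constructs by gel excision, streptavidin beads and RT-PCR. Fitness is the logarithm of genotype enrichment relative to wild-type enrichment, averaged over replicates with inverse-variance weights. The logarithm is base 2, and after Illumina sequencing only genotypes with ≥10 input reads and ≥1 read per output were kept.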
In the case of A24C G42U U44G U61A G80C A110U, the “polymerase ribozyme fitness (log ratio)” value was at most -4.2. Take A24U C85U: the “polymerase ribozyme fitness (log ratio)” value was -0.914. For A24U A39U C96A C99G U130C C131G the value was at most -4.2; for G25C G83C C87G A91G, at most -4.2; for A24C A30U C43A C57U C87G, at most -4.2.

Turning to G25C A52G G83C, the “polymerase ribozyme fitness (log ratio)” value is -3.42. For A24U U55C C85A the value was -1.34; for A24G G25U U31C U55A C87G U102G, at most -4.2. Under A24U G80C G86U C125G A137C stands at most -4.2; under G25C U45A G59A U90G G100A C116G, at most -4.2; under G25C C36U C57A, -3.99. For G25A C38U C85G the value was -4.07; for A24U G34U G42A U55G A91C G94A, -3.62. In the case of A24G G34A G58C C87A C99U, the “polymerase ribozyme fitness (log ratio)” value was at most -4.2. Under G25C A60G G83C C96U G141U stands -2.48. Under G25C C57A C63A G92C A113C U134A stands at most -4.2. On to A24C C27G A29U C57U G86C C103A, for which the “polymerase ribozyme fitness (log ratio)” value is at most -4.2. As to G25C A49C C51U U53G C54A C116U G141A G152U, the “polymerase ribozyme fitness (log ratio)” value was at most -4.2. For A24G C35U G48U A52U C125A the value was at most -4.2; for A24G A66G C85A A91U U127C G133A U134A, at most -4.2. Under G25C C57U C123A C125G stands -2.33. Under A24U A66G stands -3.16. As for G25A U33A G83C A91U G94A A121U C131U, the “polymerase ribozyme fitness (log ratio)” value was at most -4.2.

On to A24C G42C G92U C125G, for which the “polymerase ribozyme fitness (log ratio)” value was at most -4.2. Under A24C A98U stands at most -4.2. A24U C76G A138G: the “polymerase ribozyme fitness (log ratio)” value is at most -4.2. Under A24U C43A A60C C96A A119U G126A stands at most -4.2; under A24C A28U A41C U78G A122G U127A, at most -4.2.

As for A24C A49C G84A A97C U130G A137U, the “polymerase ribozyme fitness (log ratio)” value was at most -4.2.

Regarding A24G C123U C132U U134A, the “polymerase ribozyme fitness (log ratio)” value was at most -4.2. For A24C G34C G50C U134A the value was at most -4.2.

For A24C A30U A52G G58A G68A U82G C93U A98U G100C C125A G126U, the “polymerase ribozyme fitness (log ratio)” value was at most -4.2. For A24G A52C C85U C96U C105U A120U G136A the value was at most -4.2; for A24U A29C A73G G86U A89C G140U A150G, at most -4.2; for A24G G86U, -3.77.

Regarding A24U G74C, the “polymerase ribozyme fitness (log ratio)” value was -4.19. For A24G C99U the value was -3.56.

Turning to G25C A26U C87G A121U C129G U151A, the “polymerase ribozyme fitness (log ratio)” value is at most -4.2. With A24G A29G G46U, the “polymerase ribozyme fitness (log ratio)” value is at most -4.2. For G25U A26C A49G U61A C76U U104A C114U A119C the value was at most -4.2.

For the variant A23U U56G G58C G74C G88U, the “polymerase ribozyme fitness (log ratio)” value is at most -4.2. For A24U A29G A52G A91U G126U U144G the value was at most -4.2; for A24C U53C C118U A142C, at most -4.2. For A24U A26U U55C A91G the value was at most -4.2. Under A24G G80C G83C A115U U134A stands at most -4.2; under A24C A49C A52C A64U C69A U82G C108U U130A U139G, at most -4.2.

Consider A24U U151A, for which the “polymerase ribozyme fitness (log ratio)” value is at most -4.2. Under A24U C87A stands at most -4.2. For A24U C87U the value was -0.48; for A24C C72U C85G C131G G133U, at most -4.2; for A24C U31C U33G U53A U78A G88U U134C, at most -4.2. Under A24U G58C G88A C93U A121G stands at most -4.2; under G25C G68C C93A C99G C114U, at most -4.2; under A24C C85U A120C U146A, at most -4.2. As for A24U G94A G143U, the “polymerase ribozyme fitness (log ratio)” value is -3.4.

Take G25A U55A: the “polymerase ribozyme fitness (log ratio)” value was -2.09. Turning to A24G U61C U82G C95U, the “polymerase ribozyme fitness (log ratio)” value is at most -4.2. For A24U A41G U53G G124C C131U the value was -1.4; for A24G A39G G67U G83A C85A U104G C105U G136A, at most -4.2.

With A24U A52U C118G A142U, the “polymerase ribozyme fitness (log ratio)” value was -3.54.

Take A24U G34A G92C A137G: the “polymerase ribozyme fitness (log ratio)” value is -4.07. For G25C A41C U55A U61A C116U U144A the value was at most -4.2. For A24U G67C C76G G83U the value was -2.24; for G25C G86A A122U, at most -4.2. Under A24C G81U G83C A110U C114G stands at most -4.2; under A24U, 0.541; under A24G, -1.75. Consider A24C, for which the “polymerase ribozyme fitness (log ratio)” value is -3.22. Under G25C U53A U61A C95G stands -4.18; under A24C G50C C96G A110U, at most -4.2; under A24C G67A G81C G88A, at most -4.2. For G25C A60G G86C C105U the value was -3.36. Under A24C G65A G84C A97G G100U C108G G141C stands at most -4.2; under A24G U53A C96G A122G A142C, at most -4.2.

As to G25C G50U C96U A97U, the “polymerase ribozyme fitness (log ratio)” value was -3.33.

Consider A24U G136U, for which the “polymerase ribozyme fitness (log ratio)” value was -2.44. For A24C G86U U90A U101A A106G A113U A120U G126A the value was at most -4.2; for A24U A28U U33A A41C U55G C96U, at most -4.2. Under A24U A28U C79G A91U A97U C116U C132U U135A stands at most -4.2. For A24C G46A G94U C95A A115C the value was at most -4.2; for A24U C57U A89U G92C U127C C131G, at most -4.2; for A24U G58A A66U C87A U90G U146C, at most -4.2.

On to A24U C96A U145A, for which the “polymerase ribozyme fitness (log ratio)” value came to 0.748. For G25A G34C U44A G84A G88A the value was at most -4.2.
